Results published in paper PMC5120205.

Biological target: recombinant full-length IsdB, Q2FHV2
Assay: ELISA
Details: chain shown with the change

B1: D4-10-N1 antibody (human IgG) H:Y52A; H:F53A (protein)
chain 1: QVQLQESGPGLVKPSETLSLICTVSGGSISSSSYYWGWIRQTPERNLEWIGIIAASGTTYYNPSLQSRVSMSLDRSTNRFSLRLSSVTAADTAIYYCAKPKSRDRGGPGDDYFGMDVWGQGIMVTVSS
chain 2: DIQLTQSPSFLSASVADRVTITCRASQAVRSSLAWYQQKPGKAPQLLIYSASTLENGVSSRFSGSGPGTEFTLTISSLQPEDVGTYYCQQLNTYPFTFGPGTKVEIK
Question: For B1, which percent of parent is on record?
Answer: The percent of parent was 9%.
